The values below come from patent US5695963.

The target in data set [1] is mouse aryl hydrocarbon receptor nuclear transport protein (ARNT) (mouse) (UniProt P53762).
Data set [2] has as its target HIF-1alpha (Homo sapiens) (UniProt Q16665). Kind of data set: cell_activity. The following applies: 293 cells, larger amounts of plasmid.
Data set [3] concerns EPAS1/ARNT heterodimer (cotransfected) (Homo sapiens (EPAS1) / Mus musculus? (ARNT)). Kind of data set: cell_activity. The following applies: ARNT-deficient c4 cells; EPAS1 alone 1.8-fold; Hepa1c1c7 with EPAS1 9-fold.
The next data set deals with EPAS1 (Homo sapiens) (UniProt Q99814). Kind of data set: cell_activity. To be noted: 293 cells, endogenous ARNT.
Chain of EPAS1 (Homo sapiens) (Q99814 whole entry A60E): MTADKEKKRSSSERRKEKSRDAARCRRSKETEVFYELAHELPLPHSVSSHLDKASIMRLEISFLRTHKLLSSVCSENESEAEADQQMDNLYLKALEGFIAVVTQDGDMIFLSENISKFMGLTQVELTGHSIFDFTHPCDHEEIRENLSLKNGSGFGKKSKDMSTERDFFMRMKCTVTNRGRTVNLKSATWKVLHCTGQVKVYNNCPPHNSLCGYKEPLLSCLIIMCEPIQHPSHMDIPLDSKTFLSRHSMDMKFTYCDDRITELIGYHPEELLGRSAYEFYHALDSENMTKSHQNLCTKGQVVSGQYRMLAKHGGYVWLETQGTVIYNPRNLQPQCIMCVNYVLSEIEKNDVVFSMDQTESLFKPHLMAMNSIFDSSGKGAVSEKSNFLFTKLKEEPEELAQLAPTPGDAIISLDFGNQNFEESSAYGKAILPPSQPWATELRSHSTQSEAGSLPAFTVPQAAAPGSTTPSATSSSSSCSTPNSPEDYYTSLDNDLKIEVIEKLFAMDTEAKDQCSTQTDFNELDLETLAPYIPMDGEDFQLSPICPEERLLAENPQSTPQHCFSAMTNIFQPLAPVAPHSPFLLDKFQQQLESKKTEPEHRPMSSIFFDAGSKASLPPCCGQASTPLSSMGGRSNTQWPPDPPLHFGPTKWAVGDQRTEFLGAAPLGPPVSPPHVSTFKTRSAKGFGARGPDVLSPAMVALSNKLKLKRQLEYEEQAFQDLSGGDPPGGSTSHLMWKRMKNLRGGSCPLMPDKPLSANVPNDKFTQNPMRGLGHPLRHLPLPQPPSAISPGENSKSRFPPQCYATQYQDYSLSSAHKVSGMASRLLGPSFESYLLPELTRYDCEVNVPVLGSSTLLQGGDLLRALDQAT

Chain of HIF-1alpha (Homo sapiens) (Q16665 whole entry): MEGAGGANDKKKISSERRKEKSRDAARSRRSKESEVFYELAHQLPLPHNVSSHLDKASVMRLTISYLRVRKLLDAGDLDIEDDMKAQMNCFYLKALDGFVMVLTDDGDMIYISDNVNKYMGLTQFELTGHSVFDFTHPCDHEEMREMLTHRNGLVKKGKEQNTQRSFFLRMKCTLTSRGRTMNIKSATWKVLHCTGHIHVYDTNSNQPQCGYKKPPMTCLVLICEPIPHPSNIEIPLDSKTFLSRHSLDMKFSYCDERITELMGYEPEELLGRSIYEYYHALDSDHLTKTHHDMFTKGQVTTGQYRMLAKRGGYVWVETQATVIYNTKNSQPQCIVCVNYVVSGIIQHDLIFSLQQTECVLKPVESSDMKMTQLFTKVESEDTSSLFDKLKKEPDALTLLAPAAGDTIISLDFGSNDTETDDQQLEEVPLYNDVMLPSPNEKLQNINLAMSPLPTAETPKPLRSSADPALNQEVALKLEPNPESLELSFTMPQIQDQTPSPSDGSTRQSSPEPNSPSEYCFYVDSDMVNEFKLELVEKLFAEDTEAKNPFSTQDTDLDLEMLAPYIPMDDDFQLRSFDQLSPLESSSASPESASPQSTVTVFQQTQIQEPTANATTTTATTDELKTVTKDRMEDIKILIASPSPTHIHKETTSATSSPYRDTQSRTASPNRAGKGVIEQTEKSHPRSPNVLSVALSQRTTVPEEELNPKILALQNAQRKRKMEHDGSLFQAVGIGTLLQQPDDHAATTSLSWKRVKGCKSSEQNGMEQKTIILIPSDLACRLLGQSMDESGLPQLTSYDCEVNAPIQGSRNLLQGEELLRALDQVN

With human EPAS1 protein, the luciferase activity of the pRE-Elb-LUC reporter in ARNT-deficient c4 hepatoma cells in data set [1] was 12 fold.
In the case of “three copies of 50-nt EPO hypoxia-inducible enhancer in luciferase reporter”, the activity (fold induction) in data set [2] was found to be 7; in data set [3], 12; in the data set with EPAS1 (Homo sapiens), 12.
